Among the data in US20250353912A1 (published 2025) are Kd values, retold here.

Residue numbers refer to the chain shown, from its start. Where no end group is shown, it is not given here. [ ]: non-standard residue; d: D form.

Test [1] deals with HLA-A*01:01 in complex with the BTK peptide … conjugated with Ibrutinib (human;, ibrutinib covalently bound to Cys). Description: multiplex bead-binding assay.
Test [2] concerns the target T1, KRAS(G12C) residues 4-18 peptide conjugated to AMG-510.
T1 peptide: YKLVVVGAC(AMG‑510)GVGKSA[dPEG4]K(long chain biotin)-NH2
Nature of the test: bead binding assay; apparent KD.

Test [3] has as its target RAS-AMG510. Nature of the test: cell binding, flow cytometry (peptide-pulsed Raji cells); apparent KD. (A flow cytometer gives signals particle by particle.)
The target of test [4] is CD3 on Jurkat cells (UniProt P07766 23-207). Description: cell binding, flow cytometry.

B1: IBA1-13 (antibody, V domains shown)
VH: EVQLVESGGGLVQPGGSLRLSCAASGFTLSSSSIHWVRQAPGKGLEWVASIYSSYGYTYYADSVKGRFTISADTSKNTAYLQMNSLRAEDTAVYYCARYYYYWYGGMDYWGQGTLVTVSS
VL: DIQMTQSPSSLSASVGDRVTITCRASQSVSSAVAWYQQKPGKAPKLLIYSASSLYSGVPSRFSGSRSGTDFTLTISSLQPEDFATYYCQQGHDMNPVTFGQGTKVEIKR
Take B1: the Kd in test [1] turned out to be 0.137 nM.

B2: P2AMR-1 in the human IgG1 format (antibody, V domains shown)
VH: QVQLVQSEPEVKKPGSSVKLSCKASGGTFSTDAITWVRQAPGQGLEYMGGIIPLLDSVDYAQRFQGRVTVSADKSTGTAYMEVRSLGSEDTAKYYCAKWSSVDTGLDYWGQGTLVTVSS
VL: QSVLIQPRSVSGSPGQSVTISCTGTSSDVGGYNYVSWYQQHPGKAPKLMIYDVSKRPSGVPDRFSGSKSGNTASLTVSGLQAEDEADYYCGSYADTDTIVFGTGTKLTVL
As to B2, in test [2], the Kd was 0.2 nM.

B3: IBA1-21 (antibody, V domains shown)
VH: EVQLVESGGGLVQPGGSLRLSCAASGFTISSSSIHWVRQAPGKGLEWVASISSYYGYTSYADSVKGRFTISADTSKNTAYLQMNSLRAEDTAVYYCARYYSYSSGYGYYDYFDWGAMDYWGQGTLVTVSS
VL: DIQMTQSPSSLSASVGDRVTITCRASQSVSSAVAWYQQKPGKAPKLLIYSASSLYSGVPSRFSGSRSGTDFTLTISSLQPEDFATYYCQQMQYSGWLITFGQGTKVEIKR
B3 came in with a Kd in test [1] of 0.04 nM.

B4: IBA1-7 (antibody, V domains shown)
VH: EVQLVESGGGLVQPGGSLRLSCAASGFTLSSSSIHWVRQAPGKGLEWVASISSYYGSTSYADSVKGRFTISADTSKNTAYLQMNSLRAEDTAVYYCARMHYSWQEYYSYDWGMDYWGQGTLVTVSS
VL: B3 VL with M91S, Q92Y, Y93W, S94W, G95K, W96S, I98V
Molecule B4 showed a Kd in test [1] of 170 nM.

B5: IBA1-19 (antibody, V domains shown)
VH: EVQLVESGGGLVQPGGSLRLSCAASGFTFSYSSIHWVRQAPGKGLEWVASIYPSSGYTSYADSVKGRFTISADTSKNTAYLQMNSLRAEDTAVYYCARGWWYWMAWDYAMDYWGQGTLVTVSS
VL: B3 VL with M91S, Q92W, Y93M, G95D, W96S
Turning to B5, the Kd in test [1] worked out at 0.52 nM.

B6: AMRA311-18 hIgG1 (antibody, V domains shown)
VH: EVQLVESGGGLVQPGGSLRLSCAASGFTISSSSIHWVRQAPGKGLEWVASIYSSSGSTSYADSVKGRFTISADTSKNTAYLQMNSLRAEDTAVYYCARVYSSRYWGWGVAFDYWGQGTLVTVSS
VL: B3 VL with M91W, Q92N, Y93W, S94A, G95D, W96Y, I98V
On to B6, for which, in test [3], the Kd turned out to be 52 nM.

B7: IBA1-4 (antibody, V domains shown)
VH: EVQLVESGGGLVQPGGSLRLSCAASGFTVSSSSIHWVRQAPGKGLEWVASIYSYSGSTYYADSVKGRFTISADTSKNTAYLQMNSLRAEDTAVYYCARQYSSSYYVWPGMDYWGQGTLVTVSS
VL: B3 VL with M91Y, Q92H, S94W, G95A, W96S
Turning to B7, the Kd in test [1] was determined as 0.65 nM.

B8: AMRA3-7D_CrossMab (bispecific antibody)
chain: EVQLLESGGGLVQPGGSLRLSCAASGFTFSTYAMNWVRQAPGKGLEWVSRIRSKYNNYATYYADSVKGRFTISRDDSKNTLYLQMNSLRAEDTAVYYCVRHGNFGNSYVSWFAYWGQGTLVTVSSASVAAPSVFIFPPSDEQLKSGTASVVCLLNNFYPREAKVQWKVDNALQSGNSQESVTEQDSKDSTYSLSSTLTLSKADYEKHKVYACEVTHQGLSSPVTKSFNRGEC
heavy 1: not shown
heavy 2: EVQLVESGGGLVQPGGSLRLSCAASGFTFSDYSIHWVRQAPGKGLEWVASISSSSGSTSYADSVKGRFTISADTSKNTAYLQMNSLRAEDTAVYYCARGGWYPAMDYWGQGTLVTVSSASTKGPSVFPLAPSSKSTSGGTAALGCLVEDYFPEPVTVSWNSGALTSGVHTFPAVLQSSGLYSLSSVVTVPSSSLGTQTYICNVNHKPSNTKVDEKVEPKSCDKTHTCPPCPAPEAAGGPSVFLFPPKPKDTLMISRTPEVTCVVVDVSHEDPEVKFNWYVDGVEVHNAKTKPREEQYNSTYRVVSVLTVLHQDWLNGKEYKCKVSNKALGAPIEKTISKAKGQPREPQVCTLPPSRDELTKNQVSLSCAVKGFYPSDIAVEWESNGQPENNYKTTPPVLDSDGSFFLVSKLTVDKSRWQQGNVFSCSVMHEALHNHYTQKSLSLSP
light: DIQMTQSPSSLSASVGDRVTITCRASQSVSSAVAWYQQKPGKAPKLLIYSASSLYSGVPSRFSGSRSGTDFTLTISSLQPEDFATYYCQQISYVKKLITFGQGTKVEIKRTVAAPSVFIFPPSDRKLKSGTASVVCLLNNFYPREAKVQWKVDNALQSGNSQESVTEQDSKDSTYSLSSTLTLSKADYEKHKVYACEVTHQGLSSPVTKSFNRGEC
In test [4], B8 yielded a Kd of 200 nM.

B9: IBA1-8 (antibody, V domains shown)
VH: EVQLVESGGGLVQPGGSLRLSCAASGFTISYSSIHWVRQAPGKGLEWVASIYPSYGSTSYADSVKGRFTISADTSKNTAYLQMNSLRAEDTAVYYCARWQGYYQPALDYWGQGTLVTVSS
VL: DIQMTQSPSSLSASVGDRVTITCRASQSVSSAVAWYQQKPGKAPKLLIYSASSLYSGVPSRFSGSRSGTDFTLTISSLQPEDFATYYCQQPYYPLITFGQGTKVEIKR
B9: the Kd in test [1] amounted to 62 nM.

B10: AMRA311-17 hIgG1 (antibody, V domains shown)
VH: EVQLVESGGGLVQPGGSLRLSCAASGFTISSSSIHWVRQAPGKGLEWVASISSYSGSTYYADSVKGRFTISADTSKNTAYLQMNSLRAEDTAVYYCARYPYGSHVYTGLDYWGQGTLVTVSS
VL: B9 VL with P91S, Y92S, Y93S, P94S
With B10, the Kd in test [3] came out at 180 nM.

B11: AMRA311-16 hIgG1 (antibody, V domains shown)
VH: EVQLVESGGGLVQPGGSLRLSCAASGFTISSSSIHWVRQAPGKGLEWVAYISSYSGYTYYADSVKGRFTISADTSKNTAYLQMNSLRAEDTAVYYCARYWYGHYHSYFGLDYWGQGTLVTVSS
VL: B9 VL with P91S, Y92S, Y93S, P94S
As for B11, the Kd in test [3] came out at 71 nM.
